Test results published in US20150291693A1 (FRAUNHOFER GESELLSCHAFT ZUR FORDERUNG DER ANGEWANDTEN …, published 2015).

T1: CD30 (human, UniProt P28908 19-595)
T1 sequence (looked up): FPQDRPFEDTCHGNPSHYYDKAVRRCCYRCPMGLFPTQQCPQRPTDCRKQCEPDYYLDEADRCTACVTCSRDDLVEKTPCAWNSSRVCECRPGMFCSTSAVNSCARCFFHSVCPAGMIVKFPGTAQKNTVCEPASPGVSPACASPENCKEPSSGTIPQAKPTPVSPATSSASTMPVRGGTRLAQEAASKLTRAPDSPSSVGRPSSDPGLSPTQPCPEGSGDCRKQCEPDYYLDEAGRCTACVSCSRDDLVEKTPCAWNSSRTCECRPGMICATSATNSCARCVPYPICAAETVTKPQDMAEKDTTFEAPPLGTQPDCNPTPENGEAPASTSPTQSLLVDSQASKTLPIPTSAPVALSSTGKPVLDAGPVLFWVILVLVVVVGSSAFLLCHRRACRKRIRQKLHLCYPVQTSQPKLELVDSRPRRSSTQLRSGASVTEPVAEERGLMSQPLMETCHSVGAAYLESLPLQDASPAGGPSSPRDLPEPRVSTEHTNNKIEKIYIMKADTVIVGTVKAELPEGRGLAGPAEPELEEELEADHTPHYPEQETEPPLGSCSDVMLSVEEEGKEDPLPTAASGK


Experiments:
[1] = target: CD64 (Fc gamma receptor I) (human, UniProt P12314 16-374); experiment: cell-based or functional assay
[2] = target: T1, CD30; experiment: cell-based or functional assay

CD64 (Fc gamma receptor I), sequence (P12314 16-374, form in doubt): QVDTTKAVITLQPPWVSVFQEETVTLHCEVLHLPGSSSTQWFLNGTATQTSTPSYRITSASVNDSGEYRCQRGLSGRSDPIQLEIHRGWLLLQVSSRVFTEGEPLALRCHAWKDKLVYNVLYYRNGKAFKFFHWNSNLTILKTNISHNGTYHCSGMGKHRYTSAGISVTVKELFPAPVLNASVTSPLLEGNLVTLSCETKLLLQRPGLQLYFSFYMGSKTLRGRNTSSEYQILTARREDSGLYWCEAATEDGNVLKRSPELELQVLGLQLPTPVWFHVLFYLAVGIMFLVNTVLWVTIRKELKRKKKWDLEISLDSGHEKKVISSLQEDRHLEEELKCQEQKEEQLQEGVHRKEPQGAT

Binder | IC50, XTT viability assay on Interferon γ stimulated HL60 cells [1] | IC50, XTT viability assay on L540 cells [2]
Gm-H22(scFv) (other) IIGGREVIPHSRPYMASLQRNGSHLCGGVLVHPKWVLTAAHCLAQRMAQLRLVLGLHTLDSPGLTFHIKAAIQHPRYKPVPALENDLALLQLDGKVKPSRTIRPLALPSKRQVVAAGTRCSMAGWGLTHQGGRLSRVLRELDLQVLDTRMCNNSRFWNGSLSPSMVCLAADSKDQAPCKGDSGGPLVCGKGRVLAGVLSFSSRVCTDIFKPPVATAVAPYVSWIRKVTGRSAAEHEGDAAQPAMAQVQLVESGGGVVQPGRSLRLSCSSSGFIFSDNYMYWVRQAPGKGLEWVATISDGGSYTYYPDSVKGRFTISRDNSKNTLFLQMDSLRPEDTGVYFCARGYYRYEGAMDYWGQGTPVTVSSGGGGSGGGGSGGGGSDIQLTQSPSSLSASVGDRVTITCKSSQSVLYSSNQKNYLAWYQQKPGKAPKLLIYWASTRESGVPSRFSGSGSGTDFTFTISSLQPEDIATYYCHQYLSSWTFGQGTKLEIK | 1.2 nM | 
Gm-Ki4(scFv) (other) IIGGREVIPHSRPYMASLQRNGSHLCGGVLVHPKWVLTAAHCLAQRMAQLRLVLGLHTLDSPGLTFHIKAAIQHPRYKPVPALENDLALLQLDGKVKPSRTIRPLALPSKRQVVAAGTRCSMAGWGLTHQGGRLSRVLRELDLQVLDTRMCNNSRFWNGSLSPSMVCLAADSKDQAPCKGDSGGPLVCGKGRVLAGVLSFSSRVCTDIFKPPVATAVAPYVSWIRKVTGRSAAEHEGDAAQPAMAQVKLQESGTELAKPGAAVKMSCKASGYTFTDYWMHWVKQRPGQGLEWIGYINPNTAYTDYNQKFKDKATLTADKSSSTAYMQLRSLTSEDSAVYYCAKKTTQTTWGFPFWGQGTTVTVSSGGGGSGGGGSGGGGSDIVLTQSPKSMAMSVGERVTLSCKASENVDSFVSWYQQKPGQSPKLLIYGASNRYTGVPDRFAGSGSGRDFTLTISSVQAEDLADYHCGQNYRYPLTFGAGTKLEIKR |  | 272 nM
